From paper PMC3784475 (PLoS Pathogens, 2013)

Legend:
[1] = target: HIV gp140 SF162 trimers (HIV (isolate SF162)); test: SPR; HIV gp140 SF162 trimers amine-coupled on a CM5 chip (3250 RU); HCDR3-grafted Ubq fusions injected at 1 µM and 5 or 10 µM; HBS-EP+ (10 mM HEPES pH 7.4, 150 mM NaCl, 3 mM EDTA, 0.05% P20); 25°C; duplicate runs
Strep-tagged Scn control = target: T1, Strep-tagged Scn control (Homo sapiens, UniProt P80188); test: SPR; about 3000 RU of each Scn-peptide fusion or Strep-tagged Scn control amine-coupled on CM5 chips; 4E10 IgG injected at 300 nM in HBS-EP+ or HBS-EP+ at 500 mM NaCl; 25°C; responses normalised by specific activity; conditions: both partners purified
T1 construct: siderocalin (Scn), human; also called siderocalin construct minus peptide; not shown: Strep-tag, C-terminal, kept

“2F5 HCDR3-grafted ubiquitin fusion (designed binder)” gave a Kd [1] greater than 10 µM.

For “b12 HCDR3-grafted ubiquitin fusion (designed binder)”, the Kd [1] was greater than 10 µM.

“4E10 HCDR3-grafted ubiquitin fusion (designed binder)” showed a Kd [1] greater than 10 µM.

B1: 4E10 IgG (antibody, V domains shown)
VH: QVQLVQSGAEVKRPGSSVTVSCKASGGSFSTYALSWVRQAPGRGLEWMGGVIPLLTITNYAPRFQGRITITADRSTSTAYLELNSLRPEDTAVYYCAREGTTGWGWLGKPIGAFAHWGQGTLVTVSS
VL: EIVLTQSPGTQSLSPGERATLSCRASQSVGNNKLAWYQQRPGQAPRLLIYGASSRPSGVADRFSGSGSGTDFTLTISRLEPEDFAVYYCQQYGQSLSTFGQGTKVEVK
notes: variable domain in PDB 4LLV (4E10 Fv, solved here), 2FX7 (4E10 Fab) and 3H3P; IgG, the bivalent form; also called bNAb 4E10; Polymun AB004; source: bought: Polymun Scientific; copies: 2 + 2
B1: no binding (tested: 300 nM) (Strep-tagged Scn control).
